Tests used:
HIV-1 Peptide 1904 [1] = biological target: T1, HIV-1 Peptide 1904 (HIV-1); assay: MATRIX screen of GST-PDZ array, modified G assay ELISA; 'Intensity of Hit'
T1 construct: also called HIV peptide 1904
Protocol: (§1) The primary MATRIX screen against all PDZ proteins in the library was performed under pre-incubation conditions, which are a modification of the G assay. A pre-incubation assay incubates the peptide with the HRP-streptavidin before addition of the mixture to the PDZ-coated plate. The subsequent titrations of the peptide against the PDZs of interest were performed under normal ELISA G assay conditions. In normal conditions the peptide is incubated on the PDZ coated plate before the later addition of the HRP-streptavidin.
(§2) Prepare peptides in half of volume need with double of desired concentration. […] Dilute HRP (1:1000) in another half of volume (same volume with peptide) then mix with peptides. […] Incubate the peptide-HRP mixtures for 20 minutes at RT 8. Wash plate 3× with cold PBS* 9. Add peptide-HRP mixtures at 50 μl per well (write time on plate) 10. […] Turn on plate reader and prepare files 12. Promptly wash plate 5× with room temperature PBS 13. Add 100 μl/well TMB substrate (write time on plate) 14. Incubate in dark at room temp for a maximum of 30 minutes 15. Stop reaction with 100 μl of 0.18M H₂SO₄, 30 min. after adding TMB 16. Take last reading at 450 nm soon after stopping reaction

HIV-1 Peptide 1905 [2] = biological target: T2, HIV-1 Peptide 1905 (HIV-1); assay: as above
T2 construct: also called HIV peptide 1905
Protocol: as §1, §2

HIV-1 Peptide 1905 [3] = biological target: T2, HIV-1 Peptide 1905; assay: modified G assay ELISA, third experiment (text prints 'FIG. 3C' a second time, read as FIG. 5C)
HIV-1 Peptide 1904 [4] = biological target: T1, HIV-1 Peptide 1904; assay: G assay ELISA (FIG. 1C): GST-PDZ on anti-GST plate, biotinylated peptide titrated, streptavidin-HRP
HIV-1 Peptide 1905 [5] = biological target: T2, HIV-1 Peptide 1905; assay: G assay ELISA (FIG. 4C): GST-PDZ on anti-GST plate, biotinylated peptide titrated, streptavidin-HRP
HIV-1 Peptide 1904 [6] = biological target: T1, HIV-1 Peptide 1904; assay: modified G assay ELISA (FIG. 2C): peptide pre-incubated with streptavidin-HRP, titrated on GST-PDZ plate
HIV-1 Peptide 1905 [7] = biological target: T2, HIV-1 Peptide 1905; assay: modified G assay ELISA (FIG. 3C): peptide pre-incubated with streptavidin-HRP, titrated on GST-PDZ plate

B1: AIPC d1, GST fusion (other)
chain: LIRPSVISIIGLYKEKGKGLGFSIAGGRDCIRGQMGIFVKTIFPNGSAAEDGRLKEGDEILDVNGIPIKGLTFQEAIHTFKQIRSGLFVLTVRTKLVSPSLTNSS
notes: also called AIPC (PDZ #1)
B1: binds (HIV-1 Peptide 1904 [1]).

B2: KIAA1284, GST fusion (other)
chain: KDVNVYVNPKKLTVIKAKEQLKLLEVLVGIIHQTKWSWRRTGKQGDGERLVVHGLLPGGSAMKSGQVLIGDVLVAVNDVDVTTENIERVLSCIPGPMQVKLTFENAYDVKRET
B2: binds (HIV-1 Peptide 1904 [1]); binds (HIV-1 Peptide 1905 [2]).

B3: MAGI1 d1, GST fusion (other)
chain: PSELKGKFIHTKLRKSSRGFGFTVVGGDEPDEFLQIKSLVLDGPAALDGKMETGDVIVSVNDTCVLGHTHAQVVKIFQSIPIGASVDLELCRGYPLPFDPDGIHRD
notes: also called MAGI1 (PDZ #1)
B3: binds (HIV-1 Peptide 1904 [1]).

B4: PICK1 F.L., GST fusion (other)
chain: MFADLDYDIEEDKLGIPTVPGKVTLQKDAQNLIGISIGGGAQYCPCLYIVQVFDNTPAALDGTVAAGDEITGVNGRSIKGKTKVEVAKMIQEVKGEVTIHYNKLQADPKQGMSLDIVLKKVKHRLVENMSSGTADALGLSRAILCNDGLVKRLEELERTAELYKGMTEHTKNLLRAFYELSQTHRAFGDVFSVIGVREPQPAASEAFVKFADAHRSIEKFGIRLLKTIKPMLTDLNTYLNKAIPDTRLTIKKYLDVKFEYLSYCLKVKEMDDEEYSCIALGEPLYRVSTGNYEYRLILRCRQEARARFSQMRKDVLEKMELLDQKHVQDIVFQLQRLVSTMSKYYNDCYAVLRDADVFPIEVDLAHTTLAYGLNQEEFTDGEEEEEEEDTAAGEPSRDTRGAAGPLDKGGSWCDS
B4: binds (HIV-1 Peptide 1905 [2]).

B5: KIAA0751 RIM2, GST fusion (other)
chain: TLNEEHSHSDKHPVTWQPSKDGDRLIGRILLNKRLKDGSVPRDSGAMLGLKVVGGKMTESGRLCAFITKVKKGSLADTVGHLRPGDEVLEWNGRLLQGATFEEVYNIILESKPEPQVELVVSRPIG
B5 gave an EC50 (HIV-1 Peptide 1905 [3]) of 68 nM, an EC50 (HIV-1 Peptide 1904 [4]) of 410 nM and an EC50 (HIV-1 Peptide 1905 [5]) of 182 nM. The EC50 (HIV-1 Peptide 1904 [6]) was 30 nM and the EC50 (HIV-1 Peptide 1905 [7]) was 14 nM.

B6: KIAA0316, GST fusion (other)
chain: IPPAPRKVEMRRDPVLGFGFVAGSEKPVVVRSVTPGGPSEGKLIPGDQIVMINDEPVSAAPRERVIDLVRSCKESILLTVIQPYPSPKSEFIVTD
B6: binds (HIV-1 Peptide 1904 [1]).

B7: EZRIN Binding Protein 50 PDZ #1, GST fusion (other)
chain: LCCLEKGPNGYGFHLHGEKGKLGQYIRLVEPGSPAEKAGLLAGDRLVEVNGENVEKETHQQVVSRIRAALNAVRLLVVDPE
notes: also called EBP50 d1; EBP50 (PDZ #1)
B7: binds (HIV-1 Peptide 1905 [2]).

B8: KIAA0807 MAST2, GST fusion (other)
chain: ISALGSMRPPIIIHRAGKKYGFTLRAIRVYMGDSDVYTVHHMVWHVEDGGPASEAGLRQGDLITHVNGEPVHGLVHTEVVELILKSGNKVAISTTPLENSS
B8: binds (HIV-1 Peptide 1904 [1]); binds (HIV-1 Peptide 1905 [2]).

B9: INADL d3, GST fusion (other)
chain: NVELVRKDGQSLGIRIVGYVGTSHTGEASGIYVKSIIPGSAAYHNGHIQVNDKIVAVDGVNIQGFANHDVVEVLRNAGQVVHLTLVRRK
notes: also called INADL (PDZ #3)
B9: binds (HIV-1 Peptide 1904 [1]).

From patent US20070014803A1 (ARBOR VITA, published 2007)
